What was measured:
[1] = target: Ravn pin peptide … (Marburg virus, strain Ravn); assay: pin peptide ELISA, pin printed as D6
[2] = target: Ravn pin peptide … (Marburg virus, strain Ravn); assay: pin peptide ELISA, pin printed as D5
[3] = target: Ravn pin peptide … (Marburg virus, strain Ravn); assay: pin peptide ELISA, pin D4; overflow value is greater than 3.9
[4] = target: Ravn pin peptide … (Marburg virus, strain Ravn); assay: pin peptide ELISA, pin D5
[5] = target: Ravn pin peptide … (Marburg virus, strain Ravn); assay: pin peptide ELISA, pin D6
[6] = target: Ravn pin peptide … (Marburg virus, strain Ravn); assay: pin peptide ELISA, pin D5; overflow value is greater than 3.9
[7] = target: Ravn pin peptide … (Marburg virus, strain Ravn); assay: pin peptide ELISA, pin D4
[8] = target: Ravn pin peptide […] (Marburg virus, strain Ravn); assay: pin peptide ELISA, pin D6; overflow value is greater than 3.9

B1: CAN54G2 (antibody, V domains shown)
VH: QVQLQQSGTELVRPGTSVKISCKASGYDFTNFWLGWIKQRPGHGLEWIGDIYPGGDNTYYNEKFKGKVTLTADKSSNTAYMQFSSLTSEDSAVYFCFMILYTLDYWGQGTSVTVSS
VL: not shown
Absorbance (1 hour) [1]: 1.85 | Absorbance (1 hour) [2]: 2.76

B2: CAN30G4 (antibody, V domains shown)
VH: EVKLVESGGGLVKSGGSLKLSCAVSGFTFSTYAMSWVRQIPEKRLEWVATISNGGSYIYYSDSVKGRFTISRDNAKNTLYLQMSSLRSEDTAMYYCARHRESYRYDWFAYWGQGTLVTVSA
VL: DVLMTQTPLSLPVSLGDQASISCRSSQNIVHSDGNTYLEWYLQKPGQSPKLLIYKFSNRFSGVPDRFSGSGSGTDFTLKISRVEAEDLGVYYCFQGSHVPPTFGAGTKLELK
Absorbance (1 hour) [3]: > 3.9 | Absorbance (1 hour) [4]: 1.97

B3: CAN30G3 (antibody, V domains shown)
VH: QVQLKESGPGLVAPSQSLSITCTVSGFSLTDYGITWIRQPPGKGLEWLGVIWGGGSAYYNLVLKSRLSISKDNSKSQVFLKMNSLQTDDTAMYYCAKHRTLITTAMDYWGQGISVTVSS
VL: DVLMTQTPLSLPVSLGDQASISCRSSQNIVHSNGNTYLEWYLQKSGQSPKLLIYKVSNRFSGVPDRFSGSGSGTDFTLKISRVEAEDLGVYYCFQGSHFPWTFGGGTKLEIK
Absorbance (1 hour) [5]: 1.12 | Absorbance (1 hour) [4]: 1.84

B4: CAN30G5 (antibody, V domains shown)
VH: EVQLVESGGGLVQPKGSLKLSCAASGFAFNSYAMHWVCQAPGKGLEWVARIRIKSGNYATSYAGSVTDRFTVSRDDSQNLFYLQMNNLKTEDTAMYYCVREWEGAMDYWGQGTSVTVSS
VL: DIVLTQSPLSLPVSLGDQASISCRSSQSLVHSNGNTYLHWYLQKPGQSPNLLIYKVSNRFSGVPDRFSGSGSGTDFTLKISRVEAEDLGVYFCSQSTHVPWTFGGGTKLEIK
Absorbance (1 hour) [6]: > 3.9 | Absorbance (1 hour) [7]: 0.631 | Absorbance (1 hour) [8]: > 3.9
